Assay results as given in article PMC4384738.

Molecular target: WISp39 (UniProt Q9UIM3)
Experiment: anti-GFP co-IP, Western blot
Conditions: reference: wild type; sites S2

Substance: Coronin 1B (from UniProt Q9BR76) S2A
- binding against the reference: lost
